Measured values from patent publication US20160032279 (published 2016).
Where two headings read alike, the source gives them in different places. No end group written: not given here.

B1: SA-3 (peptide)
chain: TVLICMNICWTGETQ
modifications: cysteine pairing not given here; also: phycoerythrin conjugate
B2: SA-2 (peptide)
chain: ICSYVMYTTCFLRVY
modifications: cysteine pairing not given here; also: phycoerythrin conjugate
B3: SA-1 (peptide)
chain: RLEICQNVCYYLGTL
modifications: cysteine pairing not given here; also: phycoerythrin conjugate

What was measured:
[1] = molecular target: T1, Streptavidin (Streptomyces avidinii, UniProt P22629); assay: FACS
[2] = molecular target: T1, Streptavidin; assay: FACS; remark: listed apart in the source

T1 sequence (P22629 37-163): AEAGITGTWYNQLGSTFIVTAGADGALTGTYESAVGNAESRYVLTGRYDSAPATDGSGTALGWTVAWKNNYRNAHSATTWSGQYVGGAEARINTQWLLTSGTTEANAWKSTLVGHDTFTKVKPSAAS

Row | Binder | Kd [1] | Kd [2]
1 | B1 | 4 nM | 4 nM
2 | B2 | 8 nM | 
3 | B3 | 10 nM | 
